Assay results: the nanobody polyreactivity screen of Harvey et al. (2022)

Assay: yeast display, Sf9 membrane polyspecificity reagent, FACS + sequencing; frameworks hold sequencing errors
Outline: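 Galactose induction of a Saccharomyces cerevisiae BJ5465 synthetic nanobody display library ran 36–48 hours. The cells were then stained for 1 hour at 4 °C with 10% biotinylated, detergent-solubilized Sf9 membrane reagent, pulled down on streptavidin microbeads and FACS-sorted into low and high (top ~1%) gates on expression and reagent-binding fluorescence. Labels for polyreactivity follow the gate of origin.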

Row | Sequence | polyreactivity (PSR sort gate)
1 | QVQLVESGGGLVQAGGSLRLSCAASGFTFASYAMGWYRQAPGKERELVAAISGSGTSTYYADSVKGRFTISRDKAKNTVYLQMNSLKPEHTAVYYCAARRYGYRYDYWGQGTQVTVSS | high polyreactivity
2 | QVQLVESGGGLVQAGGSLRLSCAASGFTFATNAMGWYTPAPGKERELVAVISSGGSTYYADSVKGLFTISRDNAKNTVYLQMNRLKPEDTAVYYCNAGRKVRGALDGYDYWGQGTQVTVSS | high polyreactivity
3 | QVQLVESGGGLVQAGGSLRLSCAASGFTFATYAMGWYRQAPGKERELVAAITSGDRTKYADSVKGRFTISRDNAKNTVYLQMNSLKPEDTAVYYCAATTYKVSTGYGYWGQGTQVTVSS | high polyreactivity
4 | QVQLVESGGGLVQAGGSLRLSCAASGFTFAVFARGWYRQAPGKERELVAAISRTGTRTYYADSVKGRFTISRDNAKNTVYLQMNSLKPEDTAVYYWAADKYRHGYDYWGQGTQVTVSS | low polyreactivity
5 | QVQLVESGGGLVQAGGSLRLSCAASGFTFAVNAMGWYRQAPGKERELVAAISKSGGRTYYADSVKGRFTISRDNAKNTVYLQMNSLKPEDTAVYYCAADGPGYTYDYWGQGTQVTVSS | high polyreactivity
6 | QVQLVESGGGLVQAGGSLRLSCAASGFTFAVNAMGWYRQAPGKERELVAAISKSGGRTYYADSVKGRFTISRDNAKNTVYLQMNSLKPEDTAVYYCAAEGPGYTYDYWGQGTQVTVSS | high polyreactivity
7 | QVQLVESGGGLVQAGGSLRLSCAASGFTFAVYAMGWSRQAAAKERELVAAISRSGTRTYYADSVKGRFTISRDNGKNTVYLQMNSLKPEDTAVYYFAAEVPDTDAYGYWGQGTQVTVSS | low polyreactivity
8 | QVQLVESGGGLVQAGGSLRLSCAASGFTFAVYDMGWYRQAPGKERELVAVISSVGSTNYADSVKGRFTISRDNAKNTVYLQMNSLKPEDTAVYYCNAVYWYRDRWYQTGYGYWGQGTQVTVSS | high polyreactivity
9 | QVQLVESGGGLVQAGGSLRLSCAASGFTFAVYTMGWYRQAPGKERELVAAITGSGGRTYYADSVKGRFTISRDNAKNTVYLQMNSLKPEDTAVYYCNAVQRSSRQTFEYCGQGTQVTVSS | low polyreactivity
10 | QVQLVESGGGLVQAGGSLRLSCAASGFTFAYDAMGWYRQAPGKERELVAAIRRRGGITYYADSVKGRFTISRDNAKNTVYLQMNSLKPEDTAVYYWNAVRSYPAGYDSWGQGTQVTVSS | low polyreactivity
11 | QVQLVESGGGLVQAGGSLRLSCAASGFTFAYYAMGSYRQAPGKERELVAAIRKSGATTYYADSVKGRFTISRDNSKNTVYLQMISLKPEDTAVYYCNAVVKSSSRGSIAHPGYDYWGQGTQVTVSS | high polyreactivity
12 | QVQLVESGGGLVQAGGSLRLSCAASGFTFAYYAMGWYRQAPGKERELVAAISSGDNTNYADSVKGRFTISRDNAKNTVYLQMNSLKPEDTAVYYCNAEYNFKWWGPYWYYVKDDYWGQGTQVTVSS | low polyreactivity
13 | QVQLVESGGGLVQAGGSLRLSCAASGFTFAYYAMGWYRQAPGKERELVAAITSGGSTKYADSVKGRFTISRDNAKNTVYLQMNSVKPEDTAVYYCFLRGRATQWDFGYWGQGTQVTVSS | high polyreactivity
14 | QVQLVESGGGLVQAGGSLRLSCAASGFTFAYYAMGWYRQAPGKERELVASITSGGSTYYADSVKGRFTISRDNAKNTVYLQMNSLKPEATAVYYCAARVRSELIKRYYWGQGTQVTVSS | high polyreactivity
15 | QVQLVESGGGLVQAGGSLRLSCAASGFTFAYYAMGWYRQAPGKETELVAAITSGGRTNYADSVKGRFTISRDNAKNTVYLQMNSVKPEDTAVDYCAKYRRGGSRHYSVFNHDYWGQGTQVTVSS | high polyreactivity
16 | QVQLVESGGGLVQAGGSLRLSCAASGFTFDDYAMGWYRQAPGKERELVAAISWSGGSTYYADSVKGRFTISRDNAKNTVYLQMNSLKPEDTAVYYCAALRTGAQYSTMDYWGQGTQVTVSS | low polyreactivity
17 | QVQLVESGGGLVQAGGSLRLSCAASGFTFDDYVMGWYRQAPGKERELVAAISRSGGSTYYADSVKGRFTISRDNAKNTVYLQMNSLKPEDTAVYYCAARTYSWGDWGQGTQVTVSS | high polyreactivity
18 | QVQLVESGGGLVQAGGSLRLSCAASGFTFDFYAMGWYRQAPGKERELVAAISKNDGTTYYADSVKGRFTISRDNAKNTVYLQMNSLKPEDTAVYYCAAESGYPVYTYVSSGDYWGQGTQVTVSS | low polyreactivity
19 | QVQLVESGGGLVQAGGSLRLSCAASGFTFDFYAMGWYRQAPGKERELVASIRWSGGSTYYADSVKGRFTISRDNAKNTVYLQMNSLKPEDTAVYYCAKSIASAAYDSWGQGTQVTVSS | low polyreactivity
20 | QVQLVESGGGLVQAGGSLRLSCAASGFTFDFYVMGWYRPAPGTERELVAANSWDGGTTYYADSVKGRFTISRDNAKNTVYLQLNSLKPEDTAVYYCAADDWVYVPTGAWYLYEYWGQGTQVTVSS | high polyreactivity
21 | QVQLVESGGGLVQAGGSLRLSCAASGFTFDGYAMGWDRQAPGKESELVAAISDSGDSTYYADSVKGRFTISRDNAKNTVYLQMNSLTPEDTAVYYCAAGLGYYWSDYFADDSCGQGTQVTVSS | low polyreactivity
22 | QVQLVESGGGLVQAGGSLRLSCAASGFTFDINAMGWSRQAPGKERELVAAISRSGGRTYYADSVKGRFTISRDNAKNTVYLQMNSLKPDDTAVYYCAARYPERRYNTFDYWGQGTQVTVSS | high polyreactivity

Row | Sequence | polyreactivity (PSR sort gate)
23 | QVQLVESGGGLVQAGGSLRLSCAASGFTFDIYAMGWYRQAPGKERELVATISRSGGTTYYADSVKGRFTISRDNAKNTVYLQMNSLKPEDTAVYYCNAGRYYIGGYWGQGTQVTVSS | high polyreactivity
24 | QVQLVESGGGLVQAGGSLRLSCAASGFTFDIYAMGWYRQAPGKEREMVADITSGGSTDYADSVKGRFTISRDNAKNTVYLQMNSLKPEDTAVYYCNGAVFYDPEWQYDYWGQGSQVTVSS | low polyreactivity
25 | QVQLVESGGGLVQAGGSLRLSCAASGFTFDKNTMGWYRQAPGKERELVAAITRGGGSTYYADSVKGRFTISRDNAKNTVYLQMNSLKPEDTAVYYCAARYWTKRYRLLDYWGQGTQVTVSS | high polyreactivity
26 | QVQLVESGGGLVQAGGSLRLSCAASGFTFDLYAMGWYRQAPGKERELVAAISWSGGSTRYADSVKGRFTISRDNAKNTVYLQMNSLKPEDTAVYYCARQPRLYFKGKLYGYWGQGTQVTVSS | high polyreactivity
27 | QVQLVESGGGLVQAGGSLRLSCAASGFTFDRNAMGWYRQAPGKERGLVAAISSSGGRTYYADSVKGRFTISRDNAKNTVYLQMNSLKPEDTAVYYCAATSSYSYDYWGQGTQVTVSS | high polyreactivity
28 | QVQLVESGGGLVQAGGSLRLSCAASGFTFDRYANGWYRQAPWKAWELVAAITRRGGSTYYADSVKGRFTISRDNAKKTVYLQMNSLKPEDTAVYYCNARTYVTVDYDYCGQGTQVTVSS | high polyreactivity
29 | QVQLVESGGGLVQAGGSLRLSCAASGFTFDSYAMGRYRQAPGKERELVAAISSSGGDSTSYADSVKGRFTISRDNAKNTVYLQMNRLKPEDTAVYYCADEQFYSFIVDDTWFSGFDYWGQGTQVTVSS | low polyreactivity
30 | QVQLVESGGGLVQAGGSLRLSCAASGFTFDSYAMGWYRPAPGKERELVAAITSDGSTYYADSVKGRFTISRDNAKNTVYLQMNSLKPEDTAVYYCAARSTARYGYWGQGTQVTVSS | low polyreactivity
31 | QVQLVESGGGLVQAGGSLRLSCAASGFTFDSYAMGWYRQAPGKERELVAAITWDGGSTYYADSVKGRYTISRDNAKNTVYLQMNSLKPEETAVYYCAADFGTISIDVYSWMDYWGQGTQVTVSS | low polyreactivity
32 | QVQLVESGGGLVQAGGSLRLSCAASGFTFDTNAMGWYRQAPGKERELVAAISWGGDTTYYADSVKGRFTISRDNAKNTVYLQMNSLKPEDTAVYYCNVYWYDWWGYDYWGQGTQVTVSS | high polyreactivity
33 | QVQLVESGGGLVQAGGSLRLSCAASGFTFDWNAMGWYRQAPGKERELVAAISSSTGRTYYADSVKGRFTISRDNAKNTVYLQMNSLKPEDTAVYYCAASLGGRAGNYWGQGTQVTVSS | high polyreactivity
34 | QVQLVESGGGLVQAGGSLRLSCAASGFTFDWNGMGWYRQAPGKEREFVAGITWSGTSTYADSVKGRFTISRDNAKNTVYLQMNSLKPEDTAVYYCAAVSSKGNRHEYDYWGQGTQVTVSS | low polyreactivity
35 | QVQLVESGGGLVQAGGSLRLSCAASGFTFDYNAMGWYRQAPGKEREFDAAISTGGSTKYADSVKGRFTISRDNAKNTVYLQMNSLKPEDTAVYYCNKQTTDRGFYDWKWSGFDYWGQGTQVTVSS | low polyreactivity
36 | QVQLVESGGGLVQAGGSLRLSCAASGFTFDYNAMGWYRQAPGKERELVAGITSGGRTYYADSVKGRFTISRDNAKNTVYLQMNSLKPEDTAVYYCAATPEPPAYGTPLVPYSYDYWGQGTQVTVSS | low polyreactivity
37 | QVQLVESGGGLVQAGGSLRLSCAASGFTFDYYAMGWYRQAPGKERELVAAISKSGGSTYYADSVKGRFTISRDNAKNTVYLQLISLKPEDTAVYYCAAYTYVRSKNKGGDYWGQGTQVTVSS | high polyreactivity
38 | QVQLVESGGGLVQAGGSLRLSCAASGFTFDYYAMGWYRQAPGKERELVAAISRAGSTNYADSVKGRFTISRDNAKNTVYLQMNSLKPEDTAVYYCNKGYHSWSRLSQFGWSYDYWGQGTQVTVSS | high polyreactivity
39 | QVQLVESGGGLVQAGGSLRLSCAASGFTFDYYFMGWYRQAPGKERELVAAISLRSGRTYYADSVKGRFTISRDNAKNTVYLQMKSLKPEDTAVYYCAAESRGVGAYYYWGQGTQVTVSS | high polyreactivity
40 | QVQLVESGGGLVQAGGSLRLSCAASGFTFEENAMGWYRQAPGKERELVAAINWSGGNTYYADSVKGRFTISRDNAKNTVYLQMNSLKPEDTAVYYCAAEYRSWSWRMDYWGQGTQVTVSS | high polyreactivity
41 | QVQLVESGGGLVQAGGSLRLSCAASGFTFEKNAMGWYRQAPGKERELVAAISRGGSTYADSVKGRFTISRDNAKNTVYLQMNSLKPEDTAVYYCAADTVYIFSSAINGEFGYWGQGTQVTVSS | low polyreactivity
42 | QVQLVESGGGLVQAGGSLRLSCAASGFTFEKNAMGWYRQAPGKERELVAAITSGGSTYYADSVKGRFTISRDNAKNTVYLQMNSLKPEDTAVYYCNAYYTYRFNYWGQGTQVTVSS | high polyreactivity
43 | QVQLVESGGGLVQAGGSLRLSCAASGFTFEKYVMGWYRQAPGKDREFVAAITRSGGRTYYADSVKGRFTISRDNAKNTVSLQMNSLKPEDTAVYYCAAAFSRSDTGGGSSGQGTQVTVSS | high polyreactivity
